The results in this text go back to patent publication US6444644B1, “Anticoagulant peptide fragments derived from apolipoprotein B-100” (University College London, priority 1996, dated 2002).

In series [1] the target is T1, interaction of thromboplastin with apo B-100 (Homo sapiens, UniProt P13726).
T1 construct: purchased Gamidor Ltd. (Oxfordshire, U.K.) for thromboplastin; apoB-100 isolated and reconstituted in house
As to the kind of experiment: Influence of peptide 58-66 on the inhibition of thromboplastin by apo B-100. Format: biochemical. To be noted: peptide 1 μM, thromboplastin 100 nM, apo B-100 250 nM, 37° C., up to 180 min. How it is done: (250 nM final concentration) in the presence and absence of the isolated thromboplastin peptide (1 μM) or control peptide (1 μM), at 37° C. Aliquots (100 μl) were removed at the start and at various intervals up to 180 min and assayed by means of the one-stage prothrombin time assay. The residual activity of thromboplastin measured in the samples was compared to the initial activity, at time zero, and percentage inhibition calculated.
Samples of thromboplastin (100 nM) were incubated with reconstituted apo B-100 (250 nM final concentration) in the presence (▪) and absence (▾) of the isolated thromboplastin peptide (1 μM), at 37° C. Aliquots ([…]) were removed at the start (time zero) and at various intervals up to 180 min and assayed by means of the one-stage prothrombin time assay. The data presented are representative of 5 independent experiments.

For series [2], the target named is T2, thromboplastin (Homo sapiens, UniProt P13726).
T2 construct: purchased Gamidor Ltd. (Oxfordshire, U.K.)
T2 sequence (P13726 33-295): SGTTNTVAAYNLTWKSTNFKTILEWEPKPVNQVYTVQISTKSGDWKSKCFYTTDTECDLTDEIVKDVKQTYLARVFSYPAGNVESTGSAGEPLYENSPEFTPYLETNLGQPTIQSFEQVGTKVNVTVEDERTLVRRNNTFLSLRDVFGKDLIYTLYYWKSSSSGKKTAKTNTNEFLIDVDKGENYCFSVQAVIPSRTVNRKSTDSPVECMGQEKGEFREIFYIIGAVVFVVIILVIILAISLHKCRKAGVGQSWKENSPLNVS
Nature of the series: Effect of thromboplastin peptide (58-66) on thromboplastin activity (one-stage prothrombin time assay). Format: biochemical. To be noted: for effect on the procoagulant activity of thromboplastin (in words) / Procoagulant Activity of thromboplastin: peptide 1 μM, thromboplastin 100 nM; for Procoagulant Activity of thromboplastin: 5 min, 37° C., distilled water 6.70 U/ml. The procedure:
The control peptide ([…]) was reconstituted to 1 mM in distilled water. The control peptide was similar but not identical to the thromboplastin (58-66), in size, charge and amino acid composition but with a different sequence. In order to assess the effect of the thromboplastin peptide (58-66) on the activity of thromboplastin, samples of recombinant thromboplastin (100 nM) were incubated for 5 min, with the isolated thromboplastin-peptide ([…]), control peptide (1 μM) or distilled water at 37° C. prior to assaying using the one-stage prothrombin time assay. The activity was calculated from a thromboplastin standard curve.
Three aliquots of thromboplastin (100 nM) were incubated for 5 min, with the isolated thromboplastin peptide (1 μM), control peptide (1 μM) or distilled water at 37° C. prior to assaying using the one-stage prothrombin time assay. The activity was calculated from a thromboplastin standard curve. The data were obtained from 3 separate experiments.

Series [3] concerns the target T3, thromboplastin, reconstituted in phosphatidylcholine (Homo sapiens, UniProt P13726).
T3 construct: purchased Gamidor Ltd. (Oxfordshire, U.K.)
Nature of the series: Inhibition of delipidated thromboplastin reconstituted in phosphatidylcholine. The class given is biochemical. To be noted: 500 nM sample, 37° C., 30 min; for Procoagulant Activity: distilled water control 4.70 U/ml. The procedure:
In other experiments, recombinant thromboplastin (1 mg/ml) was delipidated with chloroform/methanol as described previously, to remove phosphatidylserine and other lipids and reconstituted with phosphatidylcholine (1 mg/ml) to differentiate between the effects of the prepared samples on the protein moiety of thromboplastin and any effects on the thromboplastin-associated phosphatidylserine. […] The percentage inhibition was calculated against the control sample.
Recombinant thromboplastin was delipidated to remove phosphatidylserine and other lipids and reconstituted at 1 mg/ml with phosphatidylcholine (1 mg/ml). […] The % Inhibition was calculated against the control. The data were obtained from 3 separate experiments.

Series [4] has as its target T2, thromboplastin. Nature of the series: Time-course inhibition of thromboplastin procoagulant activity (one-stage prothrombin time and two-stage amidolytic assay). The class given is biochemical. To be noted: 500 nM, 37° C.; for effect on thromboplastin (in words): up to 120 min. The procedure:
The one stage prothrombin time assay was carried out by the addition of 100 μl of the sample to 100 μl of 25 mM CaCl2 solution and incubation prior to addition of 100 μl of control plasma. The clotting time was measured on the coagulometer. The two-stage amidolytic assay was carried according to published procedures. In all cases the thromboplastin activity was calculated from a standard curve prepared previously and the percentage inhibition was calculated as 100×[…].
The apolipoprotein B-100 control peptide (fragment 3358-3372) containing the sequence TRLTRKRGLKLATAL was reconstituted in distilled water to 1 mM. The freeze-dried samples were reconstituted in distilled water to a concentration of 1 mM. Two 200 μl samples of thromboplastin (10 U/ml) were incubated with 500 nM KRAD-14 or apolipoprotein B-100 control peptide at 37° C. for 45 min. Another set of 200 μl samples of thromboplastin (10 U/ml) were incubated with either 500 nM KRAD-98 or the chloramphenicol acetyltransferase control protein. […] Following the incubation the thromboplastin activity in all the samples was measured by means of the one-stage prothrombin time assay and the two-stage amidolytic assay and the percentage inhibition calculated against the control containing distilled water.
The above experiments were repeated using 1 ml samples containing recombinant thromboplastin (10 U/ml) mixed with either 500 nM KRAD-14, 500 nM KRAD-98 or 500 nM apolipoprotein B-100, reconstituted as described before. The concentrations used are equivalent to that of apolipoprotein B-100 in normal plasma. 100 μl of the each sample was removed immediately and assayed for thromboplastin activity, by means of the one-stage prothrombin time assay. The rest of the samples were incubated at 37° C. and further 100 μl samples were removed at intervals up to 120 min and measured as before. The percentage inhibition was calculated against a control sample of thromboplastin.
Three 1 ml samples containing recombinant thromboplastin (10 U/ml) were mixed with 500 nM KRAD-14 (solid square), 500 nM KRAD-98 (open square) or 500 nM apolipoprotein […] (triangle), reconstituted as described before. The concentrations used are equivalent to that of apolipoprotein B-100 in normal plasma. 100 μl of the each sample was removed immediately and assayed for thromboplastin activity, by means of the one-stage prothrombin time assay. The rest of the samples were incubated at 37° C. and further 100 μl samples were removed at intervals up to 120 min and measured as before. The thromboplastin activity was calculated from a standard curve prepared previously and the percentage inhibition was calculated as 100×[…]. The curves are typical of data from four sets of experiments.

Series [5] has as its target recombinant thromboplastin (UniProt P13726 33-295, limits assumed). As to the kind of experiment: cell-based or functional assay.
For series [6], the system named is T4, KRAD-14 peptide (recombinant, released from the biotinylated fusion protein with chymotrypsin).
T4 sequence: KAQSKKNKHRHSTT

The target of series [7] is T2, thromboplastin. As to the kind of experiment: Inhibition of thromboplastin in the presence of plasma. The class given is biochemical. The procedure: […] The samples were then assayed by addition of 100 μl of […] CaCl2 solution and measurement on the coagulometer. The percentage inhibition in each case calculated against a similarly treated sample, containing thromboplastin only.

T3 sequence (P13726 33-295): as above
T1 sequence (P13726 33-295): as above

Take “DLTDEIVKD [thromboplastin-derived peptide (58-66), recombinant peptide of thromboplastin residues 58-66]”: the “effect on the rate of inhibition of thromboplastin activity by reconstituted apo B-100” value in series [1] is reported as “accelerated the rate of inhibition of thromboplastin activity”. In addition, in the series with thromboplastin [2], the “effect on the procoagulant activity of thromboplastin (in words)” value is “enhanced the procoagulant activity of thromboplastin” and the “Procoagulant Activity of thromboplastin” value is “Peptide 56-66 (7.45 U/ml)”. For the same molecule, the “endogenous procoagulant activity of the peptide” value with thromboplastin [2] (peptide alone) is “no endogenous procoagulant activity”.

Consider “Reconstituted apolipoprotein B-100: apolipoprotein B-100 isolated from LDL by delipidation and gel filtration, reconstituted in phosphatidylcholine”, for which the % Inhibition (commonly the percentage by which the read-out fell short of the control) in series [3] (against distilled water control) came to 62%. In series [3], the “Procoagulant Activity” value is “(1.79 U/ml)”. Besides, the “inhibition of the procoagulant activity of thromboplastin” value with thromboplastin [4] (90 min incubation) is listed as > 95%.

Consider “TRLTRKRGLKLATAL [APO B-100 control peptide (3358-3372), apolipoprotein B-100 control peptide purchased from Sigma, reference compound]”, for which, in series [3], the “Procoagulant Activity” value is reported as “(3358-3372) (4.68 U/ml)”. The “effect on thromboplastin (in words)” value with thromboplastin [4] (listed as cationic peptide from apolipoprotein B-100 (fragment 3358-3372)) is given as “had no effect”; with thromboplastin [4] (listed as control 15 mer apolipoprotein B-100 (fragment 3358-3372) peptide), “neither the control 15 mer apolipoprotein B-100 (fragment 3358-3372) peptide nor the chloramphenicol acetyltransferase control protein had any detectable effect”.

VQGEESDNK [Control peptide]: in the series with thromboplastin [2], the “effect on the procoagulant activity of thromboplastin (in words)” value is listed as “did not have any significant effect” and the “Procoagulant Activity of thromboplastin” value is given as “Control peptide (6.75 U/ml)”.

For “reconstituted apolipoprotein B-100 (from UniProt P04114 28-4563)”, in series [5], the % Inhibition of thromboplastin delipidated and reconstituted in phosphatidylcholine; 500 nM, 30 min, 37 C amounted to 62%; the Procoagulant Activity left of thromboplastin reconstituted in phosphatidylcholine; 500 nM, 30 min, 37 C amounted to 1.79 U/ml; the inhibition of procoagulant activity of thromboplastin, time course (FIG. 1), 70 min was > 90%.

In the case of thrombin, in series [6], the “clotting ability and amidolytic proteolytic activity of thrombin (100 nM) after incubation with 500 nM peptide” value is listed as “The KRAD-14 peptide (500 nM) did not affect either the clotting ability or the amidolytic proteolytic activity of thrombin (100 nM)”.

For the molecule TRLTRKRGLKLATAL [apolipoprotein B-100 control peptide (fragment 3358-3372)], in series [5], the “% Inhibition of thromboplastin delipidated and reconstituted in phosphatidylcholine; 500 nM, 30 min, 37 C” value (from here on “% Inhibition … 37 C”) worked out at 0.4%; the “Procoagulant Activity left of thromboplastin reconstituted in phosphatidylcholine; 500 nM, 30 min, 37 C” value (“Procoagulant Activity left” below) is 4.68 U/ml.

B1: KRAD-98 peptide (recombinant, released with enterokinase) (peptide)
peptide: LKDESLWEKTGLKEFLKTTKQSFDLSVKAQYKKNKHRHSITNPLAVLCEFISQSIKSFDRHFEKNRNNALDFVTKSYNETKIKFDKYKAEKSHDELPR
Turning to B1, the “influence of plasma on the ability to inhibit thromboplastin activity (in words)” value in the series with thromboplastin [7] (plasma included during the incubation prior to assaying, peptide 500 nM) is reported as “did not significantly affect”. For the same molecule, in the series with thromboplastin [7] (plasma present, 37° C., 40 min incubation), the “inhibition of thromboplastin activity in the presence of plasma” value is listed as 95%. Besides, the “Procoagulant Activity” value in series [3] is reported as “(0.71 U/ml)”. Moreover, in series [5], the “% Inhibition … 37 C” value worked out at 85%; the “Procoagulant Activity left” value was determined as 0.71 U/ml. Besides, the “inhibition of the procoagulant activity of thromboplastin” value in the series with thromboplastin [4] (45 min incubation) is listed as 95%.

Turning to KAQSKKNKHRHSTT [KRAD-14 peptide (recombinant, released from the biotinylated fusion protein with chymotrypsin)], in series [5], the “% Inhibition … 37 C” value is 99%; the “Procoagulant Activity left” value worked out at 0.05 U/ml.
